Values of other authors as cited in US11147882B2, “Method for preserving and stabilizing proteins for formulations of sanitary, pharmaceutical and cosmetic products” (SANI-RED, S.L., priority 2013, dated 2021).

EGF: epidermal growth factor, first polypeptide isolated and characterized as a growth factor; rhEGF is the recombinant human form
half-life of rhEGF at 25° C. (25° C., based on the Arrhenius equation (Yang et al. 2005)): 6.93 h
half-life at 37 C (37 °C, pH 7.2): 3.47 h
half-life (mean life, useful life) of EGF (EGF normally, published studies): 7 h
